Results on 17 molecules are retold here after US20200079833A1 (AstraZeneca / MedImmune, published 2020).

Starred links: 1 amine or outer side, 2 acyl side, 3 side chain; linkers in the order of their positions; H or OH if unused. Non-standard residues stand in square brackets, D forms with d. Groups on a side chain read outwards from the residue. Primed or numbered codes have the meaning given here. No end group written: not given here. *: point of attachment. γGlu = O=C(O)[C@H](CCC(=O)[*:2])N[*:1]; Stearoyl = CCCCCCCCCCCCCCCCCC(=O)*; αMeF = C[C@](N)(Cc1ccccc1)C(=O)O; αMeK = C[C@](N)(CCCCN)C(=O)O; αMeS = C[C@](N)(CO)C(=O)O; PEG2′ = not defined here; Aib = CC(C)(N)C(=O)O

First the molecules themselves.
B1: SEQ ID NO 42 (peptide)
peptide: H[Aib]EGS[αMeF]TSDV[αMeS]S[αMeF]LEGEAAEE[αMeF]IA[αMeF]VV[αMeK]GG-NH2
modifications: N-terminus assumed
SMILES: CC[C@H](C)[C@H](NC(=O)[C@](C)(Cc1ccccc1)NC(=O)[C@H](CCC(=O)O)NC(=O)[C@H](CCC(=O)O)NC(=O)[C@H](C)NC(=O)[C@H](C)NC(=O)[C@H](CCC(=O)O)NC(=O)CNC(=O)[C@H](CCC(=O)O)NC(=O)[C@H](CC(C)C)NC(=O)[C@](C)(Cc1ccccc1)NC(=O)[C@H](CO)NC(=O)[C@](C)(CO)NC(=O)[C@@H](NC(=O)[C@H](CC(=O)O)NC(=O)[C@H](CO)NC(=O)[C@@H](NC(=O)[C@](C)(Cc1ccccc1)NC(=O)[C@H](CO)NC(=O)CNC(=O)[C@H](CCC(=O)O)NC(=O)C(C)(C)NC(=O)[C@@H](N)Cc1c[nH]cn1)[C@@H](C)O)C(C)C)C(=O)N[C@@H](C)C(=O)N[C@@](C)(Cc1ccccc1)C(=O)N[C@H](C(=O)N[C@H](C(=O)N[C@@](C)(CCCCN)C(=O)NCC(=O)NCC(N)=O)C(C)C)C(C)C
B2: SEQ ID NO 17 (peptide)
peptide: H[Aib]EGS[αMeF]TSDV[αMeS]S[αMeF]LEGEAA[αMeK]E[αMeF]IA[αMeF]VV[αMeK]GG-NH2
modifications: N-terminus assumed
SMILES: CC[C@H](C)[C@H](NC(=O)[C@](C)(Cc1ccccc1)NC(=O)[C@H](CCC(=O)O)NC(=O)[C@](C)(CCCCN)NC(=O)[C@H](C)NC(=O)[C@H](C)NC(=O)[C@H](CCC(=O)O)NC(=O)CNC(=O)[C@H](CCC(=O)O)NC(=O)[C@H](CC(C)C)NC(=O)[C@](C)(Cc1ccccc1)NC(=O)[C@H](CO)NC(=O)[C@](C)(CO)NC(=O)[C@@H](NC(=O)[C@H](CC(=O)O)NC(=O)[C@H](CO)NC(=O)[C@@H](NC(=O)[C@](C)(Cc1ccccc1)NC(=O)[C@H](CO)NC(=O)CNC(=O)[C@H](CCC(=O)O)NC(=O)C(C)(C)NC(=O)[C@@H](N)Cc1c[nH]cn1)[C@@H](C)O)C(C)C)C(=O)N[C@@H](C)C(=O)N[C@@](C)(Cc1ccccc1)C(=O)N[C@H](C(=O)N[C@H](C(=O)N[C@@](C)(CCCCN)C(=O)NCC(=O)NCC(N)=O)C(C)C)C(C)C
B3: SEQ ID NO 44 (peptide)
peptide: H[Aib]EGS[αMeF]TSDV[αMeS]S[αMeF]LEGEAAEE[αMeF]IA[αMeF]VVEGG-NH2
modifications: N-terminus assumed
SMILES: CC[C@H](C)[C@H](NC(=O)[C@](C)(Cc1ccccc1)NC(=O)[C@H](CCC(=O)O)NC(=O)[C@H](CCC(=O)O)NC(=O)[C@H](C)NC(=O)[C@H](C)NC(=O)[C@H](CCC(=O)O)NC(=O)CNC(=O)[C@H](CCC(=O)O)NC(=O)[C@H](CC(C)C)NC(=O)[C@](C)(Cc1ccccc1)NC(=O)[C@H](CO)NC(=O)[C@](C)(CO)NC(=O)[C@@H](NC(=O)[C@H](CC(=O)O)NC(=O)[C@H](CO)NC(=O)[C@@H](NC(=O)[C@](C)(Cc1ccccc1)NC(=O)[C@H](CO)NC(=O)CNC(=O)[C@H](CCC(=O)O)NC(=O)C(C)(C)NC(=O)[C@@H](N)Cc1c[nH]cn1)[C@@H](C)O)C(C)C)C(=O)N[C@@H](C)C(=O)N[C@@](C)(Cc1ccccc1)C(=O)N[C@H](C(=O)N[C@H](C(=O)N[C@@H](CCC(=O)O)C(=O)NCC(=O)NCC(N)=O)C(C)C)C(C)C
B4: SEQ ID NO 43 (peptide)
peptide: H[Aib]EGS[αMeF]TSDV[αMeS]S[αMeF]LEGEAA[αMeK]E[αMeF]IA[αMeF]VVEGG-NH2
modifications: N-terminus assumed
SMILES: CC[C@H](C)[C@H](NC(=O)[C@](C)(Cc1ccccc1)NC(=O)[C@H](CCC(=O)O)NC(=O)[C@](C)(CCCCN)NC(=O)[C@H](C)NC(=O)[C@H](C)NC(=O)[C@H](CCC(=O)O)NC(=O)CNC(=O)[C@H](CCC(=O)O)NC(=O)[C@H](CC(C)C)NC(=O)[C@](C)(Cc1ccccc1)NC(=O)[C@H](CO)NC(=O)[C@](C)(CO)NC(=O)[C@@H](NC(=O)[C@H](CC(=O)O)NC(=O)[C@H](CO)NC(=O)[C@@H](NC(=O)[C@](C)(Cc1ccccc1)NC(=O)[C@H](CO)NC(=O)CNC(=O)[C@H](CCC(=O)O)NC(=O)C(C)(C)NC(=O)[C@@H](N)Cc1c[nH]cn1)[C@@H](C)O)C(C)C)C(=O)N[C@@H](C)C(=O)N[C@@](C)(Cc1ccccc1)C(=O)N[C@H](C(=O)N[C@H](C(=O)N[C@@H](CCC(=O)O)C(=O)NCC(=O)NCC(N)=O)C(C)C)C(C)C

This test has as its target T1, GLP-1R (INS1e assay) (UniProt P32301 22-463, limits assumed).
T1 sequence (looked up): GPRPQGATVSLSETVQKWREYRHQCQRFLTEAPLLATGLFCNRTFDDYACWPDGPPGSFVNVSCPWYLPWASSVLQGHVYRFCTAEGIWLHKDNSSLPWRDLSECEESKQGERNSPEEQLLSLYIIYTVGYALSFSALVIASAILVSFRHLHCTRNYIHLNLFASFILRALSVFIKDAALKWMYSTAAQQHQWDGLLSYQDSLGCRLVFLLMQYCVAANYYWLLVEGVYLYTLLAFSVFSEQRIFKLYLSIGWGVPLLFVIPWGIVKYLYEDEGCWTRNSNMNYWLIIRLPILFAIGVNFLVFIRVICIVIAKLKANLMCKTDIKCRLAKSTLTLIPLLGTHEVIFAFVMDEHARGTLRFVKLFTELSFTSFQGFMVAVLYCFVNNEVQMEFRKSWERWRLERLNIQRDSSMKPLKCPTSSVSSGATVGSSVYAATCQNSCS
Nature of the test: cell-based or functional assay.
For B1, the “INS1e assay EC50 GLP-1 R n1” value is 0.207 nM, the “INS1e assay EC50 GLP-1 R n2” value amounted to 0.167 nM and the “INS1e assay EC50 Mean pM GLP-1R” value is 187 pM.
The like results for H[Aib]EGS[αMeF]TSDVSS[αMeF]LEGEAAK([PEG2′-PEG2′-PEG2′-Stearoyl])E[αMeF]IA[αMeF]VV[αMeK]GG-NH2 [SEQ ID NO 52] were, in that order, 0.0214 nM, 0.0193 nM and 20 pM.
The like results for H[Aib]EGS[αMeF]TSDV[αMeS]S[αMeF]LEGEAAK([PEG2′-PEG2′-γGlu-Stearoyl])E[αMeF]IA[αMeF]VVKGG-NH2 [SEQ ID NO 50] were, in that order, 22.1 nM, 42.6 nM and 32400 pM.
The like results for H[Aib]EGS[αMeF]TSDV[αMeS]S[αMeF]LEGEAAK([PEG2′-PEG2′-γGlu-Stearoyl])E[αMeF]IA[αMeF]VV[αMeK]GG-NH2 [SEQ ID NO 3] were, in that order, 3.59 nM, 3.78 nM and 3680 pM.
Regarding H[Aib]EGS[αMeF]TSDV[αMeS]S[αMeF]LEGEAAK([PEG2′-PEG2′-γGlu-Stearoyl])E[αMeF]IA[αMeF]VV[αMeK]GG-NH2 [SEQ ID NO 33], the “INS1e assay EC50 GLP-1 R n1” value came out at 3.59 nM, the “INS1e assay EC50 GLP-1 R n2” value was found to be 3.78 nM and the “INS1e assay EC50 Mean pM GLP-1R” value was 3680 pM.
For H[Aib]EGSFTSDV[αMeS]S[αMeF]LEGEAAK([PEG2′-PEG2′-γGlu-Stearoyl])E[αMeF]IA[αMeF]VV[αMeK]GG-NH2 [SEQ ID NO 45], in that order: 76.1 nM, 113 nM and 94600 pM.
In the case of H[Aib]EGS[αMeF]TSDV[αMeS]S[αMeF]LEGEAAK([PEG2′-PEG2′-PEG2′-Stearoyl])EFIA[αMeF]VV[αMeK]GG-NH2 [SEQ ID NO 54], the “INS1e assay EC50 GLP-1 R n1” value is 0.00267 nM, the “INS1e assay EC50 GLP-1 R n2” value came to 0.00837 nM and the “INS1e assay EC50 Mean pM GLP-1R” value amounted to 6 pM.
The like results for H[Aib]EGS[αMeF]TSDVSS[αMeF]LEGEAAK([PEG2′-PEG2′-γGlu-Stearoyl])E[αMeF]IA[αMeF]VV[αMeK]GG-NH2 [SEQ ID NO 46] were, in that order, 52.6 nM, 83.4 nM and 68000 pM.
The like results for H[Aib]EGS[αMeF]TSDV[αMeS]S[αMeF]LEGEAAK([PEG2′-PEG2′-γGlu-Stearoyl])EFIA[αMeF]VV[αMeK]GG-NH2 [SEQ ID NO 48] were, in that order, 0.729 nM, 0.871 nM and 800 pM.
For H[Aib]EGSFTSDV[αMeS]S[αMeF]LEGEAAK([PEG2′-PEG2′-PEG2′-Stearoyl])E[αMeF]IA[αMeF]VV[αMeK]GG-NH2 [SEQ ID NO 51], in that order: 0.0247 nM, 0.0207 nM and 23 pM.
Regarding H[Aib]EGS[αMeF]TSDV[αMeS]SYLEGEAAK([PEG2′-PEG2′-PEG2′-Stearoyl])E[αMeF]IA[αMeF]VV[αMeK]GG-NH2 [SEQ ID NO 53], the “INS1e assay EC50 GLP-1 R n1” value is 0.00625 nM, the “INS1e assay EC50 GLP-1 R n2” value is 0.00815 nM and the “INS1e assay EC50 Mean pM GLP-1R” value was determined as 7 pM.
For B2, in that order: 0.0051 nM, 0.00787 nM and 6 pM.
The like results for B3 were, in that order, 0.475 nM, 0.435 nM and 455 pM.
The like results for H[Aib]EGS[αMeF]TSDV[αMeS]SYLEGEAAK([PEG2′-PEG2′-γGlu-Stearoyl])E[αMeF]IA[αMeF]VV[αMeK]GG-NH2 [SEQ ID NO 47] were, in that order, 7.13 nM, 12.2 nM and 9660 pM.
Consider B4, for which the “INS1e assay EC50 GLP-1 R n1” value amounted to 0.016 nM, the “INS1e assay EC50 GLP-1 R n2” value was determined as 0.0105 nM and the “INS1e assay EC50 Mean pM GLP-1R” value turned out to be 13 pM.
For H[Aib]EGS[αMeF]TSDV[αMeS]S[αMeF]LEGEAAK([PEG2′-PEG2′-γGlu-Stearoyl])E[αMeF]IAWVV[αMeK]GG-NH2 [SEQ ID NO 49], in that order: 9.35 nM, 10.7 nM and 10000 pM.
The like results for HXEGTFTSDVSSYLEGQAAKEFIAWLVKGRK (Aib2; K(ε-(PEG)2-(PEG)2-γE-Stearate) after R30; C-terminal amide) [SEQ ID NO 6] were, in that order, 0.104 nM, 0.139 nM and 122 pM.
